Results from US10941182 (Amgen, dated 2021).
Starred links: 1 amine or outer side, 2 acyl side, 3 side chain; linkers in the order of their positions; H or OH if unused. Non-standard residues stand in square brackets, D forms with d. Primed or numbered codes have the meaning given here. *: point of attachment. AC4Abu = α-carboxy-4-aminobutyric acid, O=C(C(CCN[*:1])C(=O)[*:3])[*:2]; Oic = O=C(O)[C@@H]1C[C@@H]2CCCC[C@@H]2N1; Phe(4-Cl) = N[C@@H](Cc1ccc(Cl)cc1)C(=O)O; dPhe(4-Cl) = N[C@H](Cc1ccc(Cl)cc1)C(=O)O; γGlu = O=C(O)[C@H](CCC(=O)[*:2])N[*:1]; NMeR = CN[C@@H](CCCNC(=N)N)C(=O)O; Palmitoyl = CCCCCCCCCCCCCCCC(=O)*; αMeF = C[C@](N)(Cc1ccccc1)C(=O)O; Cha = N[C@@H](CC1CCCCC1)C(=O)O; αMeP = C[C@@]1(C(=O)O)CCCN1; β3hP = O=C(O)C[C@@H]1CCCN1; Ac6c = NC1(C(=O)O)CCCCC1; Nle = CCCC[C@H](N)C(=O)O; Ac5c = NC1(C(=O)O)CCCC1; Pip′ = not defined here; AEEA = NCCOCCOCC(=O)O; Aib = CC(C)(N)C(=O)O; Inp = O=C(O)C1CCNCC1; Nip = nipecotic acid

T1: human APJ receptor (human, UniProt P35414 1-380)
T1 sequence (looked up): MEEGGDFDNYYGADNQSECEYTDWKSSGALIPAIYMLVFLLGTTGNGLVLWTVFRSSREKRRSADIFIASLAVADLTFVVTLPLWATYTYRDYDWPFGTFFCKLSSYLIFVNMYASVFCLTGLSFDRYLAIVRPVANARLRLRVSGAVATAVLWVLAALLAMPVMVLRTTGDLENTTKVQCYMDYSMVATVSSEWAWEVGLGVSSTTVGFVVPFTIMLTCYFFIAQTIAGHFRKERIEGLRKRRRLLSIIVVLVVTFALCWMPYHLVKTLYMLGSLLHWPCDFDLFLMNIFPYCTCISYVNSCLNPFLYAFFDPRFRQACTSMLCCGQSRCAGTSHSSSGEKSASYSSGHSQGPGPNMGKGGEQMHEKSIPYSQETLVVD

T2: rat APJ receptor (rat, UniProt Q9JHG3 1-377)
T2 sequence (looked up): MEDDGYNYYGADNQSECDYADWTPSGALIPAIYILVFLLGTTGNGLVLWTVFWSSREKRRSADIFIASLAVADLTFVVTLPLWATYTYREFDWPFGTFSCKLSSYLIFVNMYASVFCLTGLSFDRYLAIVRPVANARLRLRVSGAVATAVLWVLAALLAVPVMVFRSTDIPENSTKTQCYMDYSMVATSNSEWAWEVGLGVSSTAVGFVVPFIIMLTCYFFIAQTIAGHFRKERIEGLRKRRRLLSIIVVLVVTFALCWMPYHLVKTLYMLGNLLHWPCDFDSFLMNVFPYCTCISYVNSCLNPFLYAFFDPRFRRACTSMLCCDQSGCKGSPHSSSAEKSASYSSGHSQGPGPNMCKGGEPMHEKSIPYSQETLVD

B1: SEQ ID NO: 584 (peptide)
peptide: Palmitoyl-[AC4Abu][AEEA][AEEA][dQ]RP[NMeR][Cha]SHKG[Oic][Nle][Ac6c][Phe(4-Cl)]-OH
SMILES: CCCCCCCCCCCCCCCC(=O)NCCC(C(=O)O)C(=O)NCCOCCOCC(=O)NCCOCCOCC(=O)N[C@H](CCC(N)=O)C(=O)N[C@@H](CCCNC(=N)N)C(=O)N1CCC[C@H]1C(=O)N(C)[C@@H](CCCNC(=N)N)C(=O)N[C@@H](CC1CCCCC1)C(=O)N[C@@H](CO)C(=O)N[C@@H](Cc1c[nH]cn1)C(=O)N[C@@H](CCCCN)C(=O)NCC(=O)N1[C@H](C(=O)N[C@@H](CCCC)C(=O)NC2(C(=O)N[C@@H](Cc3ccc(Cl)cc3)C(=O)O)CCCCC2)C[C@@H]2CCCC[C@@H]21
B2: SEQ ID NO: 585 (peptide)
peptide: Palmitoyl-[AC4Abu][AEEA][AEEA][dQ]RP[NMeR][Cha]SHKG[Oic][Nle][Ac5c][Phe(4-Cl)]-OH
SMILES: CCCCCCCCCCCCCCCC(=O)NCCC(C(=O)O)C(=O)NCCOCCOCC(=O)NCCOCCOCC(=O)N[C@H](CCC(N)=O)C(=O)N[C@@H](CCCNC(=N)N)C(=O)N1CCC[C@H]1C(=O)N(C)[C@@H](CCCNC(=N)N)C(=O)N[C@@H](CC1CCCCC1)C(=O)N[C@@H](CO)C(=O)N[C@@H](Cc1c[nH]cn1)C(=O)N[C@@H](CCCCN)C(=O)NCC(=O)N1[C@H](C(=O)N[C@@H](CCCC)C(=O)NC2(C(=O)N[C@@H](Cc3ccc(Cl)cc3)C(=O)O)CCCC2)C[C@@H]2CCCC[C@@H]21
B3: SEQ ID NO: 587 (peptide)
peptide: Palmitoyl-[AC4Abu][AEEA][AEEA][dQ]RP[NMeR][Cha]SHKG[Oic][Nle][Inp][Phe(4-Cl)]-OH
SMILES: CCCCCCCCCCCCCCCC(=O)NCCC(C(=O)O)C(=O)NCCOCCOCC(=O)NCCOCCOCC(=O)N[C@H](CCC(N)=O)C(=O)N[C@@H](CCCNC(=N)N)C(=O)N1CCC[C@H]1C(=O)N(C)[C@@H](CCCNC(=N)N)C(=O)N[C@@H](CC1CCCCC1)C(=O)N[C@@H](CO)C(=O)N[C@@H](Cc1c[nH]cn1)C(=O)N[C@@H](CCCCN)C(=O)NCC(=O)N1[C@H](C(=O)N[C@@H](CCCC)C(=O)N2CCC(C(=O)N[C@@H](Cc3ccc(Cl)cc3)C(=O)O)CC2)C[C@@H]2CCCC[C@@H]21
B4: SEQ ID NO: 600 (peptide)
peptide: Palmitoyl-[γGlu][AEEA][AEEA][dQ]RP[NMeR][Cha]SHKG[Oic][Nle][β3hP][dPhe(4-Cl)]-OH
SMILES: CCCCCCCCCCCCCCCC(=O)N[C@@H](CCC(=O)NCCOCCOCC(=O)NCCOCCOCC(=O)N[C@H](CCC(N)=O)C(=O)N[C@@H](CCCNC(=N)N)C(=O)N1CCC[C@H]1C(=O)N(C)[C@@H](CCCNC(=N)N)C(=O)N[C@@H](CC1CCCCC1)C(=O)N[C@@H](CO)C(=O)N[C@@H](Cc1c[nH]cn1)C(=O)N[C@@H](CCCCN)C(=O)NCC(=O)N1[C@H](C(=O)N[C@@H](CCCC)C(=O)N2CCC[C@H]2CC(=O)N[C@H](Cc2ccc(Cl)cc2)C(=O)O)C[C@@H]2CCCC[C@@H]21)C(=O)O
B5: SEQ ID NO: 603 (peptide)
peptide: Palmitoyl-[γGlu][AEEA][AEEA][dQ]RP[NMeR][Cha]SHKG[Oic][Nle][Inp][dPhe(4-Cl)]-OH
SMILES: CCCCCCCCCCCCCCCC(=O)N[C@@H](CCC(=O)NCCOCCOCC(=O)NCCOCCOCC(=O)N[C@H](CCC(N)=O)C(=O)N[C@@H](CCCNC(=N)N)C(=O)N1CCC[C@H]1C(=O)N(C)[C@@H](CCCNC(=N)N)C(=O)N[C@@H](CC1CCCCC1)C(=O)N[C@@H](CO)C(=O)N[C@@H](Cc1c[nH]cn1)C(=O)N[C@@H](CCCCN)C(=O)NCC(=O)N1[C@H](C(=O)N[C@@H](CCCC)C(=O)N2CCC(C(=O)N[C@H](Cc3ccc(Cl)cc3)C(=O)O)CC2)C[C@@H]2CCCC[C@@H]21)C(=O)O
B6: SEQ ID NO: 604 (peptide)
peptide: Palmitoyl-[γGlu][AEEA][AEEA][dQ]RP[NMeR][Cha]SHKG[Oic][Nle][Aib][dPhe(4-Cl)]-OH
SMILES: CCCCCCCCCCCCCCCC(=O)N[C@@H](CCC(=O)NCCOCCOCC(=O)NCCOCCOCC(=O)N[C@H](CCC(N)=O)C(=O)N[C@@H](CCCNC(=N)N)C(=O)N1CCC[C@H]1C(=O)N(C)[C@@H](CCCNC(=N)N)C(=O)N[C@@H](CC1CCCCC1)C(=O)N[C@@H](CO)C(=O)N[C@@H](Cc1c[nH]cn1)C(=O)N[C@@H](CCCCN)C(=O)NCC(=O)N1[C@H](C(=O)N[C@@H](CCCC)C(=O)NC(C)(C)C(=O)N[C@H](Cc2ccc(Cl)cc2)C(=O)O)C[C@@H]2CCCC[C@@H]21)C(=O)O
B7: SEQ ID NO: 608 (peptide)
peptide: Palmitoyl-[γGlu][AEEA][AEEA][dQ]RP[NMeR][Cha]SHKG[Oic][Nle][Aib][αMeF]-OH
SMILES: CCCCCCCCCCCCCCCC(=O)N[C@@H](CCC(=O)NCCOCCOCC(=O)NCCOCCOCC(=O)N[C@H](CCC(N)=O)C(=O)N[C@@H](CCCNC(=N)N)C(=O)N1CCC[C@H]1C(=O)N(C)[C@@H](CCCNC(=N)N)C(=O)N[C@@H](CC1CCCCC1)C(=O)N[C@@H](CO)C(=O)N[C@@H](Cc1c[nH]cn1)C(=O)N[C@@H](CCCCN)C(=O)NCC(=O)N1[C@H](C(=O)N[C@@H](CCCC)C(=O)NC(C)(C)C(=O)N[C@@](C)(Cc2ccccc2)C(=O)O)C[C@@H]2CCCC[C@@H]21)C(=O)O
B8: SEQ ID NO: 610 (peptide)
peptide: Palmitoyl-[γGlu][AEEA][AEEA][dQ]RP[NMeR][Cha]SHKG[Oic][Nle][αMeP][αMeF]-OH
SMILES: CCCCCCCCCCCCCCCC(=O)N[C@@H](CCC(=O)NCCOCCOCC(=O)NCCOCCOCC(=O)N[C@H](CCC(N)=O)C(=O)N[C@@H](CCCNC(=N)N)C(=O)N1CCC[C@H]1C(=O)N(C)[C@@H](CCCNC(=N)N)C(=O)N[C@@H](CC1CCCCC1)C(=O)N[C@@H](CO)C(=O)N[C@@H](Cc1c[nH]cn1)C(=O)N[C@@H](CCCCN)C(=O)NCC(=O)N1[C@H](C(=O)N[C@@H](CCCC)C(=O)N2CCC[C@@]2(C)C(=O)N[C@@](C)(Cc2ccccc2)C(=O)O)C[C@@H]2CCCC[C@@H]21)C(=O)O
B9: SEQ ID NO: 611 (peptide)
peptide: Palmitoyl-[γGlu][AEEA][AEEA][dQ]RP[NMeR][Cha]SHKG[Oic][Nle][β3hP][αMeF]-OH
SMILES: CCCCCCCCCCCCCCCC(=O)N[C@@H](CCC(=O)NCCOCCOCC(=O)NCCOCCOCC(=O)N[C@H](CCC(N)=O)C(=O)N[C@@H](CCCNC(=N)N)C(=O)N1CCC[C@H]1C(=O)N(C)[C@@H](CCCNC(=N)N)C(=O)N[C@@H](CC1CCCCC1)C(=O)N[C@@H](CO)C(=O)N[C@@H](Cc1c[nH]cn1)C(=O)N[C@@H](CCCCN)C(=O)NCC(=O)N1[C@H](C(=O)N[C@@H](CCCC)C(=O)N2CCC[C@H]2CC(=O)N[C@@](C)(Cc2ccccc2)C(=O)O)C[C@@H]2CCCC[C@@H]21)C(=O)O

target: T1, human APJ receptor; assay: cell-based or functional assay

Row | Binder | EC50 Human APJ Receptor [nM]
1 | B1 | 22.9
2 | B2 | 6.73
3 | Palmitoyl-[AC4Abu][AEEA][AEEA][dQ]RP[NMeR][Cha]SHKG[Oic][Nle][Nip][Phe(4-Cl)]-OH [SEQ ID NO: 586] | 7.96
4 | B3 | 1.29
5 | B4 | 1.66
6 | Palmitoyl-[γGlu][AEEA][AEEA][dQ]RP[NMeR][Cha]SHKG[Oic][Nle][Pip′][dPhe(4-Cl)]-OH [SEQ ID NO: 601] | 3.44
7 | Palmitoyl-[γGlu][AEEA][AEEA][dQ]RP[NMeR][Cha]SHKG[Oic][Nle][Nip][dPhe(4-Cl)]-OH [SEQ ID NO: 602] | 5.48
8 | B5 | 2.96
9 | B6 | 0.423
10 | Palmitoyl-[γGlu][AEEA][AEEA][dQ]RP[NMeR][Cha]SHKG[Oic][Nle]P[dAMF]-OH [SEQ ID NO: 607] | 0.0956
11 | B7 | 0.214
12 | Palmitoyl-[γGlu][AEEA][AEEA][dQ]RP[NMeR][Cha]SHKG[Oic][Nle][Pip′][αMeF]-OH [SEQ ID NO: 609] | 1.25
13 | B8 | 1.06
14 | B9 | 0.722
15 | Palmitoyl-[γGlu][AEEA][AEEA][dQ]RP[NMeR][Cha]SHKG[Oic][Nle][β3hP][dAMF]-OH [SEQ ID NO: 612] | 1.72

target: T2, rat APJ receptor; assay: cell-based or functional assay

Row | Binder | EC50 Rat APJ Receptor [nM]
16 | B1 | 52.2
17 | B2 | 22.3
18 | Palmitoyl-[AC4Abu][AEEA][AEEA][dQ]RP[NMeR][Cha]SHKG[Oic][Nle][Nip][Phe(4-Cl)]-OH [SEQ ID NO: 586] | 23
19 | B3 | 3.58
20 | B4 | 4.46
21 | Palmitoyl-[γGlu][AEEA][AEEA][dQ]RP[NMeR][Cha]SHKG[Oic][Nle][Pip′][dPhe(4-Cl)]-OH [SEQ ID NO: 601] | 3.25
22 | Palmitoyl-[γGlu][AEEA][AEEA][dQ]RP[NMeR][Cha]SHKG[Oic][Nle][Nip][dPhe(4-Cl)]-OH [SEQ ID NO: 602] | 25.6
23 | B5 | 32.3
24 | B6 | 0.512
25 | Palmitoyl-[γGlu][AEEA][AEEA][dQ]RP[NMeR][Cha]SHKG[Oic][Nle]P[dAMF]-OH [SEQ ID NO: 607] | 0.55
26 | B7 | 0.326
27 | Palmitoyl-[γGlu][AEEA][AEEA][dQ]RP[NMeR][Cha]SHKG[Oic][Nle][Pip′][αMeF]-OH [SEQ ID NO: 609] | 2.49
28 | B8 | 4.98
29 | B9 | 1.57
30 | Palmitoyl-[γGlu][AEEA][AEEA][dQ]RP[NMeR][Cha]SHKG[Oic][Nle][β3hP][dAMF]-OH [SEQ ID NO: 612] | 4.62
